From patent US20080267953A1 (Kyowa Kirin, published 2008) come the findings set out here.

Experiment [1] concerns the target T1, polypeptide encoded by the human PERP gene, endogenously expressed on human cancer cell lines (PC9 / PC-9, … (human, UniProt Q96FX8 1-193)).
T1 construct: Four-transmembrane protein of 193 amino acids; also called hPERP; THW
Put plainly: flow cytometry on PC-9 cells. As for the experimental part: (§1) Binding activity of an anti-PERP humanized antibody having no consensus sequence of an N-linked sugar chain purified in (5) of Example 3 to CHO/PERP (KC1359) expressing a polypeptide encoded by the PERP gene, or PC9 cells used in (1) of Example 1 was measured using a fluorescent antibody technique as described below.
CHO/PERP or PC9 cells (2 to 3×10⁵ per well) were dispensed in a 96-well U-shaped plate, a modified antibody wherein the anti-PERP humanized antibody having no consensus sequence of an N-linked sugar chain was diluted in eight stages in a 2-fold dilution starting from 10 μg/ml using a buffer for FCM (1% BSA-PBS, 0.02% EDTA and 0.05% NaN₃) was dispensed in an amount of 100 μL/well or the modified antibody diluted in eight stages in a 5-fold dilution starting from 10 μg/ml and a reaction was carried out on ice for 30 minutes. After washing with a buffer for FCM once, a solution in which a PE-labeled anti-human IgG (H+ L) antibody (manufactured by Beckmann-Coulter) diluted 50-fold with a buffer for FCM was added thereto in an amount of 100 μL/well. After the mixture was allowed to react for 30 minutes on ice protecting from the light, it was washed with a buffer for FCM twice and fluorescence intensity was measured using a flow cytometer. […]
On the technique in general: A flow cytometer gives signals particle by particle.

Experiment [2] addresses T2, human PERP with C-terminal myc-His tag expressed on CHO/DG44 cells from plasmid pcPERPmH (human, UniProt Q96FX8 1-193).
T2 construct: The gene was cloned from plasmid HEMBA 1006335 (GenBank AK 074585); also called PERP/CHO cell; CHO/hPERP
Nature of the experiment: flow cytometry on CHO/PERP (KC1359). As for the experimental part:
as §1
CHO/PERP or PC9 cells (2 to 3×10⁵ per well) were dispensed in a 96-well U-shaped plate, a modified antibody wherein the anti-PERP humanized antibody having no consensus sequence of an N-linked sugar chain was diluted in eight stages in a 2-fold dilution starting from 10 μg/ml using a buffer for FCM (1% BSA-PBS, 0.02% EDTA and 0.05% NaN₃) was dispensed in an amount of 100 μL/well or the modified antibody diluted in eight stages in a 5-fold dilution starting from 10 μg/ml and a reaction was carried out on ice for 30 minutes. After washing with a buffer for FCM once, a solution in which a PE-labeled anti-human IgG (H+ L) antibody (manufactured by Beckmann-Coulter) diluted 50-fold with a buffer for FCM was added thereto in an amount of 100 μL/well. After the mixture was allowed to react for 30 minutes on ice protecting from the light, it was washed with a buffer for FCM twice and fluorescence intensity was measured using a flow cytometer. As a positive control, the anti-PERP human chimeric antibody KM3481 described in Reference Example 2 or the anti-PERP human chimeric antibody KM3821 (KM3821) having no consensus sequence of an N-linked sugar chain produced in Example 1 was used.

Experiment [3] deals with T1, polypeptide encoded by the human PERP …. Put plainly: flow cytometry on PC9 cells expressing PERP.
For experiment [4] the target is unchanged. Put plainly: flow cytometry on Colo 205 cells.
The target in experiment [5] is T2, human PERP with C-terminal myc-His tag …. Put plainly: FMAT fluorescent cell staining, hybridoma culture supernatant, PERP/CHO against CHO/DG44 cells. As for the experimental part:
With regard to the cells for the assay, PERP/CHO cells and CHO/DG44 cells produced in (1) of Reference Example 1 were used. The cells which were cultured on an Iscove's Modified Dulbecco's medium containing 10% fetal bovine serum (manufactured by Invitrogen) for 2 to 3 days and peeled off with a Tripsin-EDTA solution (manufactured by Invitrogen) were suspended on the same medium, seeded onto a black 96-well plates for FMAT at 7×10³ cells/100 μL medium/well and cultured overnight. Mouse anti-serum to be immunized or cultured supernatant of hybridoma cells was dispensed into the plate at 5 μL/well as a primary antibody, and ALEXA 647-labeled anti-mouse immunoglobulin G (H+ L) (manufactured by Molecular Probe) was dispensed at 50 μL/well as a secondary antibody, and the plate was allowed to stand for 4 hours under shading the light. Wavelength of 650 to 685 nm excited by laser beam of 633 nm He/Ne was measured by an FMAT 8100 HTS system (manufactured by Applied Biosystem).

B1: anti-PERP humanized antibody HV4LV4 (antibody, V domains shown)
VH: QVQLQESGPGLVKPSQTLSLTCTVSGFSISTEYAWNWIRQFPGKGLEWIGYIGYTGRTNYAPSLKSRITISRDTSKNQFSLQLSSVTAEDTATYYCTRMDYWGQGTLVTVSS
VL: DIQMTQSPSSLSASVGDRVTITCSASSSVSYMHWFQQKPGKAPKLWIYSTSNLASGVPSRFSGSGSGTDYTLTISSMQPEDFATYYCQQRSSYPPTFGQGTKVEIK
For the molecule B1, the binding result in experiment [1] and in experiment [2] was “binds” throughout.

B2: anti-PERP humanized antibody HV8LV7 (antibody, V domains shown)
VH: QVQLQESGPGLVKPSQTLSLTCTVSGFSITTEYAWNWIRQFPGNRLEWMGYIGYTGRTNYAPSLKSRITISRDTSKNQFSLQLSSVTAEDTATYYCTRMDYWGQGTLVTVSS
VL: DIVMIQSPSSLSASVGDRVTITCSASSSVSYMHWFQQKPGKSPKLWIYSTSNLASGVPSRFSGSGSGTDYTLTISSMQPEDFATYYCQQRSSYPPTFGQGTKVEIK
Turning to B2, in experiment [2], the binding result is on record as “binds”.

B3: anti-PERP humanized antibody HV4LV7 (antibody, V domains shown)
VH: QVQLQESGPGLVKPSQTLSLTCTVSGFSISTEYAWNWIRQFPGKGLEWIGYIGYTGRTNYAPSLKSRITISRDTSKNQFSLQLSSVTAEDTATYYCTRMDYWGQGTLVTVSS
VL: DIVMIQSPSSLSASVGDRVTITCSASSSVSYMHWFQQKPGKSPKLWIYSTSNLASGVPSRFSGSGSGTDYTLTISSMQPEDFATYYCQQRSSYPPTFGQGTKVEIK
Take B3: the binding result in experiment [2] is given as “binds”.

B4: anti-PERP humanized antibody HV8LV0 (antibody, V domains shown)
VH: QVQLQESGPGLVKPSQTLSLTCTVSGFSITTEYAWNWIRQFPGNRLEWMGYIGYTGRTNYAPSLKSRITISRDTSKNQFSLQLSSVTAEDTATYYCTRMDYWGQGTLVTVSS
VL: DIQMTQSPSSLSASVGDRVTITCSASSSVSYMHWYQQKPGKAPKLLIYSTSNLASGVPSRFSGSGSGTDFTLTISSLQPEDFATYYCQQRSSYPPTFGQGTKVEIK
Take B4: the “binding activity relative to KM3821” value in experiment [2] was ~0.2 fraction of the binding activity of KM3821.

B5: anti-PERP humanized antibody HV4LV3 (antibody, V domains shown)
VH: QVQLQESGPGLVKPSQTLSLTCTVSGFSISTEYAWNWIRQFPGKGLEWIGYIGYTGRTNYAPSLKSRITISRDTSKNQFSLQLSSVTAEDTATYYCTRMDYWGQGTLVTVSS
VL: DIQMTQSPSSLSASVGDRVTITCSASSSVSYMHWYQQKPGKAPKLWIYSTSNLASGVPSRFSGSGSGTDYTLTISSMQPEDFATYYCQQRSSYPPTFGQGTKVEIK
Consider B5, for which the binding result in experiment [2] is reported as “binds”.

B6: anti-PERP CDR-modified antibody ver.1 (antibody, V domains shown)
VH: DVQLQESGPGLVKPSQSLSLTCTVTGFSITTEYAWNWIRQFPGNRLEWMGYIGYTGRTSYSPSLKSRISITRDTSKNQFFLQLNSVTTEDTATYYCTRMDYWGQGTSVTVSS
VL: QIVLIQSPVIMSASPGEKVTITCSASSSVSYMHWFQQKPGTSPKLWIYSTSNLASGVPARFSGSGSGTSYSLTISRMEAEDAATYYCQQRSSYPPTFGAGTKLELK
notes: Human chimeric antibody of IgG class; also called pKANTEX3411 CDR v1
Regarding B6, the binding result in experiment [3] was “binds”.

B7: anti-PERP CDR-modified antibody ver.3 (antibody, V domains shown)
VH: DVQLQESGPGLVKPSQSLSLTCTVTGFSITTEYAWNWIRQFPGNRLEWMGYIGYTGRTYYSPSLKSRISITRDTSKNQFFLQLNSVTTEDTATYYCTRMDYWGQGTSVTVSS
VL: QIVLIQSPVIMSASPGEKVTITCSASSSVSYMHWFQQKPGTSPKLWIYSTSNLASGVPARFSGSGSGTSYSLTISRMEAEDAATYYCQQRSSYPPTFGAGTKLELK
notes: Human chimeric antibody of IgG class; also called pKANTEX3411 CDR v3
With B7, in experiment [3], the binding result is given as “binds”.

B8: anti-PERP CDR-modified antibody ver.2 (antibody, V domains shown)
VH: DVQLQESGPGLVKPSQSLSLTCTVTGFSITTEYAWNWIRQFPGNRLEWMGYIGYTGRTGYSPSLKSRISITRDTSKNQFFLQLNSVTTEDTATYYCTRMDYWGQGTSVTVSS
VL: QIVLIQSPVIMSASPGEKVTITCSASSSVSYMHWFQQKPGTSPKLWIYSTSNLASGVPARFSGSGSGTSYSLTISRMEAEDAATYYCQQRSSYPPTFGAGTKLELK
notes: Human chimeric antibody of IgG class; also called pKANTEX3411 CDR v2
As to B8, the binding result in experiment [3] was “binds”.

B9: anti-PERP CDR-modified antibody ver.5 (antibody, V domains shown)
VH: DVQLQESGPGLVKPSQSLSLTCTVTGFSITTEYAWNWIRQFPGNRLEWMGYIGYTGRTSYAPSLKSRISITRDTSKNQFFLQLNSVTTEDTATYYCTRMDYWGQGTSVTVSS
VL: QIVLIQSPVIMSASPGEKVTITCSASSSVSYMHWFQQKPGTSPKLWIYSTSNLASGVPARFSGSGSGTSYSLTISRMEAEDAATYYCQQRSSYPPTFGAGTKLELK
notes: Human chimeric antibody of IgG class; also called pKANTEX3411 CDR v5
On to B9, for which the binding result in experiment [3] was “binds”.

B10: anti-PERP CDR-modified antibody ver.6 (antibody, V domains shown)
VH: DVQLQESGPGLVKPSQSLSLTCTVTGFSITTEYAWNWIRQFPGNRLEWMGYIGYTGRTGYAPSLKSRISITRDTSKNQFFLQLNSVTTEDTATYYCTRMDYWGQGTSVTVSS
VL: QIVLIQSPVIMSASPGEKVTITCSASSSVSYMHWFQQKPGTSPKLWIYSTSNLASGVPARFSGSGSGTSYSLTISRMEAEDAATYYCQQRSSYPPTFGAGTKLELK
notes: Human chimeric antibody of IgG class; also called pKANTEX3411 CDR v6
In the case of B10, the binding result in experiment [3] is given as “binds”.

B11: anti-PERP mouse monoclonal antibody KM3411 (hybridoma FERM BP-8643) (antibody, V domains shown)
VH: DVQLQESGPGLVKPSQSLSLTCTVTGFSITTEYAWNWIRQFPGNRLEWMGYIGYTGRTNYSPSLKSRISITRDTSKNQFFLQLNSVTTEDTATYYCTRMDYWGQGTSVTVSS
VL: QIVLIQSPVIMSASPGEKVTITCSASSSVSYMHWFQQKPGTSPKLWIYSTSNLASGVPARFSGSGSGTSYSLTISRMEAEDAATYYCQQRSSYPPTFGAGTKLELK
notes: Mouse IgG1; also called anti-PERP mouse antibody KM3411
Take B11: the binding result in experiment [4] and in experiment [5] was “binds” throughout.
